Assay results from article PMC3618430 (PLoS ONE, 2013).
Numbering of substitutions follows the chain as printed.

B1: A3 Fab displayed on phage (Fab, V domains shown)
VH: QVTLKESGPGILKPSQTLSLTCSFSGFSLSTSGMGVGWIRQSSGKGLEWLANIWWDDDKYYNPSLKSQLTISKDTSRNQVFLKITSVDTADTATYYCARRGEYDAMDYWGQGTSVTVSS
VL: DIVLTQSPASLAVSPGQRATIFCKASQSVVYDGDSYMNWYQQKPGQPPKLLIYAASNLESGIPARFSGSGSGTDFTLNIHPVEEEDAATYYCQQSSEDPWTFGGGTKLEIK
notes: also called clone A3; Fab-phage A3; source: E. coli TG-1 with helper phage KM13, phage PEG-precipitated
B2: D8 Fab displayed on phage (Fab, V domains shown)
VH: B1 VH with S32P, S42P, A90T, E102N
VL: DIVLTQSPASLAMSLGQRATISCKASQSVVYDGDSYMNWYQQKPGQPPKLLIYAASNLESGIPARFSGSGSGTDFTLNIHPVEEEDAATYYCQQSSEDPWTFGGGTKLEIK
notes: also called clone D8; Fab-phage D8; source: E. coli TG-1 with helper phage KM13, phage PEG-precipitated
B3: D4 Fab displayed on phage (Fab, V domains shown)
VH: B1 VH with S30N, S42P, Q68H, R77G, T92S, E102D, A105S, M106L
VL: B2 VL with A9G, A12S, M13V, V30D
notes: also called clone D4; Fab-phage D4; source: E. coli TG-1 with helper phage KM13, phage PEG-precipitated
B4: A4 Fab displayed on phage (Fab, V domains shown)
VH: B1 VH with S42P, E102K, A105S
VL: B2 VL
notes: also called clone A4; Fab-phage A4; source: E. coli TG-1 with helper phage KM13, phage PEG-precipitated

Target: T1, recombinant A/California/04/2009 H1N1 HA (Influenza A virus A/California/04/2009 …, UniProt C3W5S1, strain)
T1 construct: source: bought: Sino Biological Inc
Experiment: ELISA
Conditions: one partner purified

Row | Binder | binding result
1 | B1 | no binding
2 | B2 | no binding
3 | B3 | no binding
4 | B4 | no binding

Target: T2, bovine serum albumin (Bos taurus, UniProt P02769)
T2 construct: also called BSA
Experiment: ELISA
Conditions: one partner purified

T2 sequence (P02769 25-607): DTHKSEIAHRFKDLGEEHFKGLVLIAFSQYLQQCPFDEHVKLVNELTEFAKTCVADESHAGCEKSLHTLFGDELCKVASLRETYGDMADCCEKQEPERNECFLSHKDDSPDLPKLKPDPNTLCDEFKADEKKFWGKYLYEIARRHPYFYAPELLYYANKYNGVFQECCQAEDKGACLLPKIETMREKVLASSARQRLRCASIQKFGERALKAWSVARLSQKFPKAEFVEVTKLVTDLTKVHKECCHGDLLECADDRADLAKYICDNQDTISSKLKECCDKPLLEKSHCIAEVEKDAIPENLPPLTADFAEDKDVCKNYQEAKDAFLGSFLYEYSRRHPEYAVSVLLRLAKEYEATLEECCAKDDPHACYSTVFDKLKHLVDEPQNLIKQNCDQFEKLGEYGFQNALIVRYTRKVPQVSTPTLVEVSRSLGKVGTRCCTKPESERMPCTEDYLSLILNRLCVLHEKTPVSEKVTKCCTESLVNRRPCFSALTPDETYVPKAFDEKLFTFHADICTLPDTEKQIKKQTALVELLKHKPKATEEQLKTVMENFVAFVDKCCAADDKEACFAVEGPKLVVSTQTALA

Row | Binder | binding result
5 | B1 | no binding
6 | B2 | no binding
7 | B3 | no binding
8 | B4 | no binding

Target: recombinant A/Anhui/1/05 (H5N1) HA (Influenza A virus A/Anhui/1/2005 (H5N1), UniProt Q1WDM0, strain)
Experiment: ELISA
Conditions: one partner purified

Row | Binder | binding result
9 | B1 | binds
10 | B2 | binds
11 | B3 | binds
12 | B4 | binds

Target: recombinant A/Turkey/1/2005 (H5N1) HA (Influenza A virus …, UniProt Q207Z6, strain)
Experiment: ELISA
Conditions: one partner purified

Row | Binder | binding result
13 | B1 | binds
14 | B2 | binds
15 | B3 | binds
16 | B4 | binds

Target: recombinant A/Netherlands/219/03 (H7N7) HA (Influenza A virus …, UniProt Q6VMK1, strain)
Experiment: ELISA
Conditions: one partner purified

Row | Binder | binding result
17 | B1 | no binding
18 | B2 | no binding
19 | B3 | no binding
20 | B4 | no binding
